Experimental data from publication PMC12554370, “MdMAPK6-mediated phosphorylation of MdWRKY9 regulates apple fruit ripening through interaction with MdERF5L”.
Positions count from the first letter of the chain named.

How the values were obtained:
[1] = target: T1, MdERF5L (Malus domestica, UniProt A0A498JN73 1-332); assay: EMSA; cold probe competes; LightShift Chemiluminescent EMSA kit (Thermo), per manufacturer's protocol; buffer, salt, pH and temperature not stated; conditions: protein: recombinant; tags: GST (pGEX-4T-1); label: biotin (hot probe); blunt
[2] = target: T1, MdERF5L; assay: EMSA; mutations disrupted binding; LightShift Chemiluminescent EMSA kit (Thermo), per manufacturer's protocol; buffer, salt, pH and temperature not stated; conditions: protein: recombinant; tags: GST (pGEX-4T-1); blunt
[3] = target: MdWRKY9 (Malus domestica, UniProt D9ZJG3 1-520); assay: EMSA; LightShift Chemiluminescent EMSA kit (Thermo), per manufacturer's protocol; buffer, salt, pH and temperature not stated; conditions: protein: recombinant; tags: GST (pGEX-4T-1) or His (pET-32a); label: biotin (hot probe); blunt
MdWRKY9, sequence (D9ZJG3 entry or part of it): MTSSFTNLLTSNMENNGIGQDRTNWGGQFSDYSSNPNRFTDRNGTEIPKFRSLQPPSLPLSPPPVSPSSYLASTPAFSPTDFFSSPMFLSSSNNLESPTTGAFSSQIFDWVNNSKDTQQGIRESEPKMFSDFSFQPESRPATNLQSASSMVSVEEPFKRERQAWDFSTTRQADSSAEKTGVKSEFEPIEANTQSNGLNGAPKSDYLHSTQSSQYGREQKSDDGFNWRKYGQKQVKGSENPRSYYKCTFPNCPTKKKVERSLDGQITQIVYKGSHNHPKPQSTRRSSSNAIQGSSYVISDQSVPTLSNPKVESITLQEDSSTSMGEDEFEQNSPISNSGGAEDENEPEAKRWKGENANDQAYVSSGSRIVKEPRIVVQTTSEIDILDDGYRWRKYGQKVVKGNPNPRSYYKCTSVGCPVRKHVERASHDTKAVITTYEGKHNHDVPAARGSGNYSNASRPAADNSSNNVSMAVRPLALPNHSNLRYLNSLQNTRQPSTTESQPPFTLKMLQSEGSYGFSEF

T1 sequence (A0A498JN73 entry or part of it): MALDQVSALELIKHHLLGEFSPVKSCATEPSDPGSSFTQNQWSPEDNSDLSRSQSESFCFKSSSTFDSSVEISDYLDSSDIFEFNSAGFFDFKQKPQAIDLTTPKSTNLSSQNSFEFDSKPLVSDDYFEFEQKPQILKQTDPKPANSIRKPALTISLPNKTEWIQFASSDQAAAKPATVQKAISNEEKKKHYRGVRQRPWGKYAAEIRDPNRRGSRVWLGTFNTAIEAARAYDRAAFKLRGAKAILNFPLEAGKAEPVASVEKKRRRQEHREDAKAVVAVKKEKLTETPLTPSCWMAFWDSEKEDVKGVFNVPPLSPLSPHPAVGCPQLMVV

B1: MdACS1-DRE probe (dsDNA)
DNA 1: AAAATAGAGGAGAAAAATGGCCGACAAAATTTGTTGTGGCTACTA
DNA 2: TAGTAGCCACAACAAATTTTGTCGGCCATTTTTCTCCTCTATTTT
- binding result [1]: binds

B2: MdACS1-DRE mutant probe (dsDNA)
DNA 1: B1 DNA 1 with C21T, G23T, C25G
DNA 2: B1 DNA 2 with G21C, C23A, G25A
- binding result [2]: no binding

B3: MdERF5L-W-box probe (dsDNA)
DNA 1: AATTTGTATATCGTTTTCTGGGTCAATGATACGTTTTTTTATATTA
DNA 2: TAATATAAAAAAACGTATCATTGACCCAGAAAACGATATACAAATT
- binding result [3]: binds
